In a protein production outcome set (Wang et al. 2014):

Assay: label from the status in PepcDB records

Row | Sequence | protein production
1 | MAERAMSVTPYWELTFDADGDVDGRERDRLLAQVAQRKVHDLVVFAHGWNNERSGATRLYSRFFQPVPALAPRARLGYVGVVWPSMIFPDEPIPDFPASVPAEVTAVARPALAKGARQALVEVFPDRATLVEQIARLLERHPDEEASLETFGQLVRLLVEARPQDPQDACAADTLATGGPVSGPEMLSGDTALVCRDFARALDRVASLHGTSAASGAVDFSFTPAGLWDGAHELLRQATYYAMKRRAGTVGERGLGRVLGRLAQAAPDVRVHLVGHSFGGRLVSFALRGLPAGVRTVKSVTLLQGAFSHYAFAARLPHDTHASGALHGLQSRIDGPLVCCYSHFDSALGTMYPLASRMAGDARSAAGELGADFDIGRTLGPRWGAMGHDGVQAVDGTRAFTLAEALRAELPASGCVNVDAAAVVKRGGPPTGAHSDIVHRELAQVVLAAGRIR | failed
2 | MNTLSVLLSLFTVIVVQRVFKKLSISLLSGVIVMILSLKVRNILEIFFWTVSSDSFWSLIVTVFLIYLLSGMMEKSGDYSRFSEEMRTIFSKNVDSFVPALIGLMPMPGGALFTAPIVKNSLPEENSLKLAVKNYWFRHTIEFFWPIYPAVVLVSELSGIHPGKVSLTLFPVFAIAFFLGWFFFNGKQLPCLSKPRSFFNLFPLIPVLGTGVLILLFKVSGWFALLLSTSGYAVFRRRYLLKTLKQVFNKWDVFLVLFFVYIYKVVVEHSGVGEGIAAEFVRWNLSPWILLIFLPLVSGISTGITQAAVGISLPVLMEVFSSKYAVYTYMFAVGGVILSPVHLCVVLSAKFFEVEVFDILKKVFLPLVLTLILGALVLGVIL | failed
3 | MTSSLQPDASRDAQREQVIAQLQQVIQRVPEQSEFTNTRRYQLLGPLFTLISLGMLAWGIQQGKTGMLLCGLFLSALFALVTWQHRHAGQHAFMRLTRRQLFVDSLSAPVNLTDVVDVHVKDEGLLTLQQLTLRPGSPLPTHRPVRQVFGNQAMALKSPEPHIRIHSAGLMSGGRKLAIDDIAALLDAYCQAANAQQQLDELQGRG | failed
4 | MSLEESLEQLKRQYLHALPDKKKQIITLWVSLRKNWQSYMLSAVYREVHNLKGSSETFGLTETKDIVDKLELQLKNLLDAPAPTLNLIKGLDTLFHQLLQNNQHYLPAAPVVEAQMQQNPYNPSKARHEYCIAIIEDDNNVGAMITKQLHEFGFNVQHFLNFTDFIKVQYASPFDLILLDLILPDYTEDALFEAACEFEKNNTRVFVLSSRSDFDMRLLAIRANVSEYFVKPAETTLLVRKIHQWLKMSDKPPLKVLLVDDQQSMVDYFSSLLRSHGLMVRGMTKPEQVIPTLEQFEPDLFIFDLYMPGVNGLELARMIRQLDKYTSSPILVLSSDDTMQNKVSIIQAGSDDLISKQTAPSLFVTQVISRAQRGHDIRSSASRDSLTGLLNHTQILVAARHCINLAKRANSSVCIAMLDLDHFKQVNDTYGHSGGDKVLLAFAHLLQQSLRAADFMGRYGGEEFMLVIPDMPAPLVIAKVNAIRESFSNIVFVEEGAEFKVTLSGGLAFSTECHEFQECLLLADKNLYEAKRTGRNRIINTLVK | failed
5 | MVSAPASASSSPASSSFQSFFWQAAARPRAEPKRQALKRITLMTTDKTSPYEIHDDRFRHLIVGNAELEELYSGCRWAEGPVWFADLNCLLFSDIPNERMLRWVPDGGISVFRQPSNFTNGNTRDRQGRLVSCEHGGRRVTRTEVDGSITVLADSYGGKRLNSPNDVVVKSDGSVWFTDPTYGILSDYEGYKAEPEQKTRNVYRLDPATGKIDIAIDDFVQPNGLAFSPDETKLYVADSSYSHDISRPRHIRVFDVVDGVRLANGREFCNLDNGLPDGFRLDTAGNLWTSAGDGVHCFAPDGRLIGKIKVPQTVANLTFGGPKKNRLFITATKSLYSVYVAATGAQTPLEHHHHHH | not failed
6 | MPVTDVKHDLDTLTLTITAEFAAPVTRIWQIYADPRQLEKVWGPPSHPATVVDHDLRPGGRVTYFMTGPDGEKYAGYWEITAVDEPHSFSFLDGFADEDFNPNTDLPVSTNVYTFTEHDGGTRATYVGTYASAEALQQVLDMGVIEGASSAINQIDALLTA | failed
7 | MKISELGYDRAFLQLFDGNDFQLYDHQRMAIEQIRKGRNVVVSVPTAAGKTLIAYSAIYETFQRNLKSIYIVPLRSLAMEKFSELSRLRDLGLKVKMSIGDYDDSPDFIKRYDAVILTSEKADSLLHHDPYILNDVGLLVLDEIHTIGDESRGPTLETVASIARYVNPDVRILALSATVSNAMELASWLDASLIKSDFRPVPLKTGILYRDQLYLDGKRRSGVSINQIIRETVEDNGQVLMFVSSRKKAEDTARDLAQIFGSDANIKISSDETNVYDDMLNEILPRGVAFHHAGLSNDQRAFIEREFRARRIKVIVATPTLAAGVNLPARLVIVRDITRWGSDGISYLTNMEIKQMIGRAGRPGYDQYGIGLIYVSSQSSYEAAKDYLSTDPEPVVSYLGNEAKVRFNTLAAISMGLARSPSDIMKFYETTLFFSQNGKDLLEEKISASLKFLEKNGFIKQSPDLRTTQLGKVTSDLYIDPESALRLVDFFDGPADVDHAIYYISLCREIVPFNIKDDYSAMEFLDDIGLIDGDIDAAKTAIVLRDWISEASYKYLYDKYGIAPGDMQARISMADWLSYSLAKLSSIYKPEVRRMLEILNLRIKEGIREDILQLVLIPGVGRVRARRLYDAGLRSIEDVASASPDRIKAIYGFSDTLANAIIRRARTIASKEVR | failed
8 | MVDTNHKIAFCIDSDGCAMDTMTYKHQLFFGPIAADIFGISEQERTSFLKEWDRVNLYSRTRGVNRFVGLVMGLEFAGVEHIDKLKEWVETTDSLSNNSLELALANDFSRDLEKALEWSNEVNRQIKNYEGDSLAFSGVLESLERLSQFGNVYVVSSANKEAVWQEWEEQGLLKYVDDIYCQDRGKKEDVIATLIASGYCRETILMVGDSLGDLAAAEQNGIAFYPVLVGKEVKSWEILREDIGEAFAKGQFEQQRQKESINTFWANLDN | failed
9 | MISRHLQNNLMSVDPASSQAMELSDVTLIEGVGNEVMVVAGVVVLILALVLAWLSTYVADSGSNQLLGAIVSAGDTSVLHLGHVDHLVAGQGNPEPTELPHPSEGNDEKAEEAGEGRGDSTGEAGAGGGVEPSLEHLLDIQGLPKRQAGAGSSSPEAPLRSEDSTCLPPSPGLITVRLKFLNDTEELAVARPEDTVGALKSKYFPGQESQMKLIYQGRLLQDPARTLRSLNITDNCVIHCHRSPPGSAVPGPSASLAPSATEPPSLGVNVGSLMVPVFVVLLGVVWYFRINYRQFFTAPATVSLVGVTVFFSFLVFGMYGR | failed
10 | MDHQLSQHDIFISQDGQLQLTVAVDTETVWLTQAEICVLFDRERSVITKHINNVFKEGELERDSVCAIFARTADDGKTYQTQYFNLDVIISVGYRVKSKRGVQFRQWATNTLKQHLLQGYTLNQQRLVQRGIEFNQALALLSKTLTNQALINPDGQAVVNVIAEYARSWSLLQGYDEQSLTEITHKQQQMQPLALDEVLAAIAALKTNLIAKGEATDLFAQLRGNGLASSIATIEQGFGGEWFYPNVASRAAHLLYFIIKNHPFADGNKRTGSFLFLWYLQQNQHLLAKPVSEQINDTTLVALALLVAESLPDQKELMIRLIEHFILLKDSELEHHHHHH | not failed
11 | MPTFNPELHAQTLNSERAYFVQPDADPAFTPHIGALVEMLTYARLTTLQAVEGLPEDQLWATAPGFANSIGTLLAHIAAVERVYHVLSFQGRDVTPEDDGAAYWGLTMGKEGTAPARLPTLDELRAELADARAETLRVFAAKDDAWLAEPLGPGWANQHWAWFHVMEDEVNHRGQLRLLRQVLAPEEGG | not failed
12 | MAPNASCLCVHVRSEEWDLMTFDANPYDSVKKIKEHVRSKTKVPVQDQVLLLGSKILKPRRSLSSYGIDKEKTIHLTLKVVKPSDEELP | failed
13 | MNGVFAINFFVMALMLALYISESFGAIILLFFYKDGSKKVTPYVVPIWELTGTFIAFWVVTSDFAYPSILVPAAFIYAVPLLILLIAFIGRNAFIIFGEFIKKGFIDEKAMYKIFSIFECIFCLVFVIFASSVVTGGGVILSKLAFNVGKWATTPGDVLFVVGTVIFIFGLSFIFYGLEKYKLHSIVLTYIGIILAVVAFVQIHLSISTVPLSPVLAIPILIGILAPILFYIDSTRKIVENKIFFLALLVISVYPFYSLVYPKFFGGTLPVSAFLTNSPMATAYFYITLGGGILLIAMLAYMVYVANGFNKMVAEKA | failed
14 | METVRPMVVAPKGNKLRRKFAKVLNIHKLTGVAPEGEMKKIKFDSKTAKLSESFYKLEEEYERSQGLEALLAKLFATVSSIKAAYAQLQHSQSPYDSIGIQKADNLVVAELKTLSELKQCFMKKQVDPNPERTLVLAEIQELRSLLKTYEIMGKKLESQYKLKDSEIIFLREKLDESMKQNKLTEKRLNQSGQLCNPLDNLHLSALNPTHFVTYLHHTVKSTRGFVKLMIEQMKLAGWDISSAANSIHPGVFYYKQDHKCFTFEHFVSNVMFEAFHLPYFSTSSESRSYKKKKQSNADREMFFERFKELRSMKAKDYLTARPKSRFARFCRAKYLQLIHPKMEQAFFGHLHLRNQVSAGEFPETSLFSGFLEMAKRIWLLHCLALSFEREAEIFRVPKGCRFSEVYMKSVAEEAFFPAAESSPESEPRVAFTVVPGFRIGKTSIQCEVYLSLS | failed
15 | MADKVYEATAEAKGYNEEGVPIVLTVKAIKKDGKVVVTDIVAKHQETDKIGAVAIEKLIEEVKTKQNYNKLDSVAGATSTSAGFRRAIRNAVKDIEKQNLEHHHHHH | not failed
16 | MKAWVLKRLGGPLELVDLPEPEAEEGEVVLRVEAVGLNFADHLMRLGAYLTRLHPPFIPGMEVVGVVEGRRYAALVPQGGLAERVAVPKGALLPLPEGLSPEEAAAFPVSFLTAYLALKRAQARPGEKVLVQAAAGALGTAAVQVARAMGLRVLAAASRPEKLALPLALGAEEAATYAEVPERAKAWGGLDLVLEVRGKEVEESLGLLAHGGRLVYIGAAEGEVAPIPPLRLMRRNLAVLGFWLTPLLREGALVEEALGFLLPRLGRELRPVVGPVFPFAEAEAAFRALLDRGHTGKVVVRL | not failed
17 | MTAFILVSGMFTGTHIWQDTAARLTARGAEVHTVALTGLDAPRAAAAPGVDLETHIADVLAVIDSVGAAGDRRIVLVGHDYGIHPAVGAADRRAERVDRIVHLDSGLPRDGVPALAAVPDQSLRERLAGAAGADGVLPPPAHEEWPRWGSTAGVPDAALDRLTALAAPQPLGTLLQPLRLTGAVDPVPTTGVLCTGNGTSIELVQMLVRLGDPALRPLTDPRVSFFELPTGHWPMLSLPAELTDVLLRAAAG | failed
18 | MDKYLRLLSQGDRLGLTLIRLSIAIVFIWIGLLKFVPYEADSITPFVANSPFMSFFYEHPEEYRQHLTHEGELKPEERAWQTANNTYAFSDGLGVVELIIAALVLANPVSRWLGLAGGVLAFLTPFVTLSFLITTPEVWVMPLGDAHYGFPYLSGAGRLVLKDTLMLAGAVMIMADSARSLLLQRQ | failed
